# US20080280358A1 (University of California, published 2008)
# Molecular target: Purified rabbit muscle actin (Cytoskeleton Inc.) (rabbit, UniProt P68135 3-377)
# Test: cell-based or functional assay
Binder,bundling activity at molar ratio 10:1 and 100:1,bundling activity at molar ratio peptide:actin = 1:1,effective peptide to actin ratio for bundling,bundling activity at 1:1 molar ratio to actin,bundling activity at molar ratio 100:1,bundling activity at molar ratio to actin of 10 and 50,bundling when the peptide is present during polymerization,"molar ratio of peptide to actin giving half-bundled and half-F-actin (co-polymerization, centrifugation, SDS-PAGE)",molar ratio of peptide:actin to bundle all the F-actin during polymerization
GIVRKAISRFEVAPYL [SS15 less active synthetic peptide],10 molar ratio peptide:actin,1 molar ratio peptide:actin,~16 molar ratio peptide:actin,–,–,–,–,–,–
GIVRKWISRFEVWPYL [SS12 active synthetic peptide],–,1 molar ratio peptide:actin,1 molar ratio peptide:actin,1 molar ratio peptide:actin,100 molar ratio peptide:actin,50 molar ratio peptide:actin,–,–,–
GIVRKWISRFEVWPYLKK [SS2 active peptide (SuSy 377-392)],–,1 molar ratio peptide:actin,1 molar ratio peptide:actin,1 molar ratio peptide:actin,–,–,2 molar ratio peptide:actin,0.5 molar ratio peptide:actin,1 molar ratio peptide:actin
